# Target: acetylcholine receptor (Homo sapiens, UniProt P02708)
# Assay: SPR binding affinity (RU) of optimized 5mer/6mer/7mer peptides, Examples 6-7
# Conditions: 6mer-1 Top sequence; SPR; peptides tested at 10 μM
# Method in brief: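 Using surface plasmon resonance, binding to the acetylcholine receptor was measured for each sequence at a single 10 μM concentration. Values are response units.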
# Chain of acetylcholine receptor (P02708 21-457): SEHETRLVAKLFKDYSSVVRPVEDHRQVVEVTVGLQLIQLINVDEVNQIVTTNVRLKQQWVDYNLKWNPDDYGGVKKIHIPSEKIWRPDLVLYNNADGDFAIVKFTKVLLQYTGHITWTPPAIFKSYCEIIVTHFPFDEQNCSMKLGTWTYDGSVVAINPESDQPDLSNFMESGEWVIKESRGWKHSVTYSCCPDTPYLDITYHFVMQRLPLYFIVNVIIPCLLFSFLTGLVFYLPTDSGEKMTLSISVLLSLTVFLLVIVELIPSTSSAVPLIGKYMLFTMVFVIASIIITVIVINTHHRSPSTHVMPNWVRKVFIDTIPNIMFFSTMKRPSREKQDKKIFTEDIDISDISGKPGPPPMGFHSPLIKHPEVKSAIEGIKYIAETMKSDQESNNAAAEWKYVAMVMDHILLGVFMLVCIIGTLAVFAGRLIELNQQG
row,Substance,Binding affinity
1,6mer-1-321 (RKQVRR),154 Ru
2,6mer-1-220 (KRQRQK),148 Ru
3,6mer-1-345 (KKLLCR),147 Ru
4,6mer-1-395 (KKRQTK),125 Ru
5,6mer-1-281 (KRLLCR),154 Ru
6,6mer-1-317 (KRSFRR),148 Ru
7,6mer-1-245 (RRGFRR),142 Ru
8,6mer-1-1225 (RKLICK),142 Ru
9,6mer-1-287 (RKWLTR),136 Ru
10,6mer-1-311 (RRGYQK),127 Ru

# Same assay, conditions: 6mer-2 Top sequence; SPR; peptides tested at 10 μM
row,Substance,Binding affinity
1,6mer-2-7 (KSRCRK),126 Ru
2,6mer-2-124 (KWQLKR),126 Ru
3,6mer-2-82 (RGVQKK),124 Ru
4,6mer-2-194 (KLRLRK),154 Ru
5,6mer-2-199 (RGQYKR),137 Ru
6,6mer-2-60 (RRLSKK),148 Ru
7,6mer-2-175 (KVYLRK),137 Ru

# Same assay, conditions: SPR, Resonance Units; 5mer Bottom sequence (bottom combinations); peptides tested at 10 μM
row,Substance,Binding affinity
1,5mer-736 (KKHHR),24 Ru
2,5mer-1007 (RDMMR),30 Ru
3,5mer-1101 (KYKNR),11 Ru
4,5mer-945 (RYEKR),23 Ru
5,5mer-1089 (KTHHR),29 Ru
6,5mer-1010 (KCDNK),16 Ru
7,5mer-811 (KMTMR),32 Ru
8,5mer-785 (KPTIR),31 Ru
9,5mer-1056 (RCTPK),11 Ru
10,5mer-1032 (RHHMR),23 Ru
11,5mer-694 (KNNAR),24 Ru
12,5mer-731 (KADHK),18 Ru
13,5mer-749 (KHTWR),24 Ru
14,5mer-715 (KCNGR),22 Ru
15,5mer-987 (RAHWR),22 Ru
16,5mer-927 (RDEDR),19 Ru

# Same assay, conditions: SPR, Resonance Units; peptides tested at 10 μM; 6mer-1 Bottom sequence
row,Substance,Binding affinity
1,6mer-1-1133 (KKPNIK),24 Ru
2,6mer-1-1152 (RKYKEK),23 Ru
3,6mer-1-1108 (RRAHNK),43 Ru
4,6mer-1-1138 (KRDCFR),21 Ru
5,6mer-1-1086 (RKEANK),22 Ru
6,6mer-1-1121 (KKTWWR),28 Ru

# Same assay, conditions: SPR, Resonance Units; peptides tested at 10 μM; 6mer-1 Bottom sequence (Table 11)
row,Substance,Binding affinity
1,6mer-1-658 (RKKEMK),20 Ru
2,6mer-1-748 (RKHNGR),24 Ru

# Same assay, conditions: SPR, Resonance Units; peptides tested at 10 μM; 6mer-2 Bottom sequence
row,Substance,Binding affinity
1,6mer-2-805 (RDTMKK),12 Ru
2,6mer-2-994 (KYCIKK),41 Ru
3,6mer-2-706 (KFTDRK),23 Ru
4,6mer-2-893 (REHVRR),17 Ru
5,6mer-2-940 (RNENKK),41 Ru
6,6mer-2-709 (RIWPKR),31 Ru
7,6mer-2-969 (KATHKR),33 Ru
8,6mer-2-760 (KIPVKK),15 Ru
9,6mer-2-634 (RYEHRK),33 Ru
10,6mer-2-674 (KKWERK),26 Ru
11,6mer-2-677 (RENWKK),28 Ru
12,6mer-2-920 (RMTIKK),26 Ru
13,6mer-2-837 (REDFRR),32 Ru
14,6mer-2-828 (RMKKKR),32 Ru
15,6mer-2-602 (RNTPKR),24 Ru
16,6mer-2-938 (RIEHKR),40 Ru
17,6mer-2-874 (KIHFRK),33 Ru
18,6mer-2-834 (RFWWKR),28 Ru

# Same assay, conditions: SPR, Resonance Units; peptides tested at 10 μM; 6mer-2 Top sequence
row,Substance,Binding affinity
1,6mer-2-488 (KVYRRK),146 Ru
2,6mer-2-582 (RWQTRK),148 Ru
3,6mer-2-499 (RLFTKR),145 Ru
4,6mer-2-445 (RLVCKR),145 Ru
5,6mer-2-595 (KLRCKK),154 Ru
6,6mer-2-429 (RWRQRK),123 Ru
7,6mer-2-566 (KRLSKK),139 Ru
8,6mer-2-464 (KSFRKK),135 Ru
9,6mer-2-450 (RQRYRK),123 Ru
10,6mer-2-554 (RWRCRR),121 Ru
11,6mer-2-498 (KGLCRR),127 Ru

# Same assay, conditions: SPR, Resonance Units; peptides tested at 10 μM; 6mer-2 Top sequence (Table 12)
row,Substance,Binding affinity
1,6mer-2-298 (KWICKK),149 Ru
2,6mer-2-297 (RSLSRR),139 Ru
3,6mer-2-332 (RRQYKK),145 Ru
4,6mer-2-258 (KRIYRR),125 Ru
5,6mer-2-357 (RGQRKK),151 Ru
6,6mer-2-370 (KSLLRR),142 Ru
7,6mer-2-255 (RLRRKK),139 Ru
8,6mer-2-227 (KLQRRK),147 Ru

# Same assay, conditions: SPR, peptides at 10 μM; 6mer-2 Bottom sequence
row,Substance,Binding affinity
1,6mer-2-1085 (RPEIRK),42 Ru
2,6mer-2-1161 (RHSFKK),27 Ru
3,6mer-2-1186 (KEKFRR),27 Ru
4,6mer-2-1102 (KHKGKR),32 Ru
5,6mer-2-1017 (RAPVRR),40 Ru
6,6mer-2-1041 (RACDKR),22 Ru
7,6mer-2-1065 (RIANRK),27 Ru
8,6mer-2-1070 (RPHVRR),31 Ru
9,6mer-2-1005 (RFKARR),23 Ru
10,6mer-2-1061 (KPPIKK),38 Ru

# Same assay, conditions: SPR, peptides tested at 10 μM; 5mer Top sequence
row,Substance,Binding affinity
1,5mer-480 (RWYLR),75 Ru
2,5mer-124 (KGFSK),58 Ru
3,5mer-332 (RRYCR),85 Ru
4,5mer-30 (KSQLR),70 Ru
5,5mer-91 (RQIQK),55 Ru
6,5mer-326 (RRFTK),68 Ru
7,5mer-76 (RGYRR),80 Ru
8,5mer-316 (KQYLR),73 Ru
9,5mer-410 (RRFLR),76 Ru
10,5mer-486 (RWLQR),53 Ru
11,5mer-100 (KVIRK),80 Ru
12,5mer-414 (KVRCK),71 Ru
13,5mer-428 (RQFLK),86 Ru

# Same assay, conditions: SPR, peptides tested at 10 μM; 5mer Top sequence (top combinations)
row,Substance,Binding affinity
1,5mer-571 (RRLTK),51 Ru
2,5mer-521 (KRFRK),78 Ru
3,5mer-598 (RVRSK),84 Ru
4,5mer-264 (KWYRK),50 Ru
5,5mer-252 (KQYRK),53 Ru
6,5mer-554 (RLLSK),65 Ru
7,5mer-263 (KQVTR),80 Ru
8,5mer-250 (RQFSR),76 Ru

# Same assay, conditions: SPR, peptides tested at 10 μM; 6mer-1 Bottom sequence
row,Substance,Binding affinity
1,6mer-1-1200 (RKACEK),21 Ru

# Same assay, conditions: SPR, peptides tested at 10 μM; 6mer-1 Bottom sequence (Table 11)
row,Substance,Binding affinity
1,6mer-1-939 (KRNDFK),41 Ru
2,6mer-1-904 (KKDTKR),31 Ru
3,6mer-1-835 (KRTADK),26 Ru
4,6mer-1-951 (RKAMDK),29 Ru
5,6mer-1-944 (RKPAGK),25 Ru
6,6mer-1-896 (KRDWIK),11 Ru
7,6mer-1-878 (RRKDNR),27 Ru
8,6mer-1-806 (RKKTIR),12 Ru

# Same assay, conditions: SPR, peptides tested at 10 μM; 6mer-1 Top sequence
row,Substance,Binding affinity
1,6mer-1-597 (KRGFYK),148 Ru
2,6mer-1-410 (KRVLRK),148 Ru
3,6mer-1-467 (KRGYQK),121 Ru
4,6mer-1-505 (RRRFTR),148 Ru
5,6mer-1-482 (RKQVRK),133 Ru
6,6mer-1-422 (KRVRQR),154 Ru
7,6mer-1-477 (KRQQTK),145 Ru
8,6mer-1-570 (RKRLRK),122 Ru
9,6mer-1-496 (RRVYQR),148 Ru
10,6mer-1-526 (KRGYTR),148 Ru
11,6mer-1-599 (KKLYQR),124 Ru
12,6mer-1-591 (KKRLYR),147 Ru

# Same assay, conditions: SPR, peptides tested at 10 μM; 6mer-1 Top sequence (top combinations)
row,Substance,Binding affinity
1,6mer-1-182 (KRGICK),147 Ru
2,6mer-1-62 (RRWFTK),133 Ru
3,6mer-1-46 (KRLYQR),142 Ru
4,6mer-1-150 (RKRQCR),142 Ru
5,6mer-1-52 (RRRFLR),131 Ru
6,6mer-1-138 (RKVVTR),124 Ru
7,6mer-1-196 (RKWRRK),142 Ru
8,6mer-1-131 (KRGIQR),142 Ru
9,6mer-1-48 (RRWVRR),124 Ru
10,6mer-1-25 (KKLIRR),135 Ru
11,6mer-1-179 (KRSQYR),148 Ru

# Same assay, conditions: SPR; XRRQRR-6mer and RRQRRX-6mer
row,Substance,"Binding affinity, relative value to the RRQRR sequence"
1,3629 (RRQRRW) [compound 3629],129

# Same assay, conditions: SPR; peptides tested at 10 μM; 5mer Bottom sequence
row,Substance,Binding affinity
1,5mer-1145 (RMPAK),25 Ru
2,5mer-1140 (RNEFK),28 Ru
3,5mer-854 (RNTER),21 Ru
4,5mer-1192 (RYAKK),28 Ru
5,5mer-1118 (RMDAR),28 Ru
6,5mer-864 (KYHPR),25 Ru
7,5mer-1198 (RAADK),25 Ru
8,5mer-1132 (KFSMK),19 Ru
9,5mer-1133 (KCSMK),23 Ru

# Reference: patent US20250011363A1, “OPTIMIZED SHORTENED PEPTIDE THAT BINDS TO ACETYLCHOLINE RECEPTOR, AND USE THEREOF” (SKINMED CO., LTD., priority 2021, published 2025)
